# According to PMC3961392:
# Residue numbers refer to the chain shown, from its start.
# Experiments:
# Assay in all cases: fluorescence anisotropy
# A3F CTD = biological target: T1, A3F CTD (UniProt Q8IUX4); settings: RT buffer: 50 mM Tris pH 7.4, 40 mM KCl, 10 mM MgCl2, 1 mM DTT; 10 nM F-labeled DNA; 21 C
# T1 sequence: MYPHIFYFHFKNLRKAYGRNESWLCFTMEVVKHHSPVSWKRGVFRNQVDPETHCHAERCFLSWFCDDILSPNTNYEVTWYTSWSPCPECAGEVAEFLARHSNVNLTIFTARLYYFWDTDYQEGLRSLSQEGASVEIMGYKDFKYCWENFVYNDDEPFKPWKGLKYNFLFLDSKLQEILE
# A3F NGM P191G = biological target: T2, A3F NGM P191G (UniProt Q8IUX4); settings: RT buffer: 50 mM Tris pH 7.4, 40 mM KCl, 10 mM MgCl2, 1 mM DTT; 10 nM F-labeled DNA; 21 C
# T2 sequence: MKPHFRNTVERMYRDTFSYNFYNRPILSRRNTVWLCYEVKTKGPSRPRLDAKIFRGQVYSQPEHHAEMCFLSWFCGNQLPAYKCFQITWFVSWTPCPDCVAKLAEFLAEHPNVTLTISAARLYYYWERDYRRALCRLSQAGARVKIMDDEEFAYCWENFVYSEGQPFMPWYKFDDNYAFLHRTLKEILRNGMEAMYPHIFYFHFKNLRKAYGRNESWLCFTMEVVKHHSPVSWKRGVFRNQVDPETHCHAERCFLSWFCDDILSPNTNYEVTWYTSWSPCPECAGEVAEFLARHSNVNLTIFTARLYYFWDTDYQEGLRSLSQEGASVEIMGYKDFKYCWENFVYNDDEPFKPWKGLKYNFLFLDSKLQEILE
# GST-A3F = biological target: T3, GST-A3F (UniProt Q8IUX4); settings: RT buffer: 50 mM Tris pH 7.4, 40 mM KCl, 10 mM MgCl2, 1 mM DTT; 10 nM F-labeled DNA; 21 C
# T3 sequence: T2 sequence with G191P
# A3F = biological target: T4, A3F (UniProt Q8IUX4); settings: apparent Kd; 10 mM Mg2+; RT buffer: 50 mM Tris pH 7.4, 40 mM KCl, 10 mM MgCl2, 1 mM DTT; 10 nM F-labeled DNA; 21 C
# T4 sequence: T2 sequence with G191P
sequence,measurement,setting,value
GAATATAGTTTTTAGTTCAAAGTAAGTGAAGATAATTTAGAGAGTTGTAATGTGATATATGTGTATGAAAGATATAAGATTCAAAGAGTAAAGTTGTTAATGTGTGTAGATATGTTAA [A3F - 63 (TTC) (118 nt)],Kd,A3F CTD,0.288 µM
same,Kd,A3F NGM P191G,0.119 µM
same,Kd,GST-A3F,0.046 µM
same,Kd,A3F,0.02 µM
